Measured values as given in PMC11117474.

Tests used:
NUPR1 (Homo sapiens) = NUPR1 (Homo sapiens) (UniProt O60356); details: cited from earlier work
[1] = molecular target: RYBP (RING1A and YY1 binding protein) (UniProt Q8N488); experiment: other fluorescence titration; ARM-PKP1 0-20 uM added to fixed RYBP 4.6 uM; 25 °C; 20 mM Tris pH 7.5, 5 mM TCEP, 150 mM NaCl; fluorescence at 330 nm; fit with ligand depletion
[2] = molecular target: armadillo-repeat domain of plakophilin 1 (ARM-PKP1); experiment: ITC; RYBP (100 uM) in the syringe titrated into ARM-PKP1 (10 uM) in the cell; 25 °C; 20 mM Tris pH 7.5, 5 mM TCEP, 150 mM NaCl; single binding site model

UniProt O60356, sequence (O60356 whole entry): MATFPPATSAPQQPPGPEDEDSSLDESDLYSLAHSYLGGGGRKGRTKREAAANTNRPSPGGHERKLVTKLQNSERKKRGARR

**Q.** For “Plakophilin 1 ARM domain (from UniProt Q13835)”, which Kd (NUPR1 (Homo sapiens)) is on record?
**A.** 10 µM

**Q.** Which Kd [1] does the source give for “armadillo-repeat domain of plakophilin 1 (ARM-PKP1) (domain or fragment)” here?
**A.** 9 µM

B1: RYBP (RING1A and YY1 binding protein) (natural protein)
chain: MTMGDKKSPTRPKRQAKPAADEGFWDCSVCTFRNSAEAFKCSICDVRKGTSTRKPRINSQLVAQQVAQQYATPPPPKKEKKEKVEKQDKEKPEKDKEISPSVTKKNTNKKTKPKSDILKDPPSEANSIQSANATTKTSETNHTSRPRLKNVDRSTAQQLAVTVGNVTVIITDFKEKTRSSSTSSSTVTSSAGSEQQNQSSSGSESTDKGSSRSSTPKGDMSAVNDESF
**Q.** Which results are given for B1?
**A.** Kd [2]: 12 µM; dH [2]: -11.9 kcal/mol; stoichiometry N [2]: 1
